The source of these data is publication PMC4523612 (The Journal of Cell Biology, 2015).

For experiment [1], the target named is Eg5 (UniProt P52732).
The target of experiment [2] is T1, Eg5 (UniProt P52732 1-1056).
T1 sequence: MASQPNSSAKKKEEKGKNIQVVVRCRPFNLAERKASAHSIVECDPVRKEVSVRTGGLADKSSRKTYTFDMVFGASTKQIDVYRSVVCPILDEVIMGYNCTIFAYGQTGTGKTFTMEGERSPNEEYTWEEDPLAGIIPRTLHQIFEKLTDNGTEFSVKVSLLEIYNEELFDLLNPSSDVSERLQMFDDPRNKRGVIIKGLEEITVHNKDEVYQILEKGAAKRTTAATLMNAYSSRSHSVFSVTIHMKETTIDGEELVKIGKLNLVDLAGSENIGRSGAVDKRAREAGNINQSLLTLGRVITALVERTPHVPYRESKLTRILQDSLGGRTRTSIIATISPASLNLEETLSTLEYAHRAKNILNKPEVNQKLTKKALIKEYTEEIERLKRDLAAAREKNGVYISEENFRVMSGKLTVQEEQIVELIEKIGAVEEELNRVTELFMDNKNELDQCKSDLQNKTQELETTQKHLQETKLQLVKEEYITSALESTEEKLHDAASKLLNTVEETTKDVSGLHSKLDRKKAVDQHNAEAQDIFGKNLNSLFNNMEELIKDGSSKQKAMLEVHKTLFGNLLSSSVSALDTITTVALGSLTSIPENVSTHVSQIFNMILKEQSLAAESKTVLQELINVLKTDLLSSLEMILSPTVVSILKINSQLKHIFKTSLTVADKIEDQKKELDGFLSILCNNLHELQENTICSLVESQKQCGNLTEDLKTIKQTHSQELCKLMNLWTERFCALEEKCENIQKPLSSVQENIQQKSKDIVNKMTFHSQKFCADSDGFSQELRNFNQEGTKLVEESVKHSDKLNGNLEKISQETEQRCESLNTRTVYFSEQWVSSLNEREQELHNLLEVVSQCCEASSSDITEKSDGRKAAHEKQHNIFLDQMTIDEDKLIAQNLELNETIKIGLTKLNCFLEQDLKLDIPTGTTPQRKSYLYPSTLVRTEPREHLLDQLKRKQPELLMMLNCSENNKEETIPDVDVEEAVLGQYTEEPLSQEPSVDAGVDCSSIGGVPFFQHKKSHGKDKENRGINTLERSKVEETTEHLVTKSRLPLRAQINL

As for “GFP-TPX2-2D (from UniProt Q9ULW0 1-747) (natural protein)”, the binding relative to WT (% less than WT) with Eg5 [1] stood at 41.

B1: GFP-TPX2-2A (S121/125A) (natural protein)
chain: MSQVKSSYSYDAPSDFINFSSLDDEGDTQNIDSWFEEKANLENKLLGKNGTGGLFQGKTPLRKANLQQAIVTPLKPVDNTYYKEAEKENLVEQSIPSNACSSLEVEAAISRKTPAQPQRRALRLAAQKDLEQKEKHHVKMKAKRCATPVIIDEILPSKKMKVSNNKKKPEEEGSAHQDTAEKNASSPEKAKGRHTVPCMPPAKQKFLKSTEEQELEKSMKMQQEVVEMRKKNEEFKKLALAGIGQPVKKSVSQVTKSVDFHFRTDERIKQHPKNQEEYKEVNFTSELRKHPSSPARVTKGCTIVKPFNLSQGKKRTFDETVSTYVPLAQQVEDFHKRTPNRYHLRSKKDDINLLPSKSSVTKICRDPQTPVLQTKHRARAVTCKSTAELEAEELEKLQQYKFKARELDPRILEGGPILPKKPPVKPPTEPIGFDLEIEKRIQERESKKKTEDEHFEFHSRPCPTKILEDVVGVPEKKVLPITVPKSPAFALKNRIRMPTKEDEEEDEPVVIKAQPVPHYGVPFKPQIPEARTVEICPFSFDSRDKERQLQKEKKIKELQKGEVPKFKALPLPHFDTINLPEKKVKNVTQIEPFCLETDRRGALKAQTWKHQLEEELRQQKEAACFKARPNTVISQEPFVPKKEKKSVAEGLSGSLVQEPFQLATEKRAKERQELEKRMAEVEAQKAQQLEEARLQEEEQKKEELARLRRELVHKANPIRKYQGLEIKSSDQPLTVPVSPKFSTRFHC
Regarding B1, in the experiment with Eg5 [2], the “binding relative to WT” value was found to be 41 % less than WT.
